Data from the supplement of paper PMC9112550, “Optimization of the antimicrobial peptide Bac7 by deep mutational scanning” (BMC Biology, 2022).

test system: Escherichia coli TOP10; assay: shrunken log2 fold change of peptide-encoding DNA abundance (4.5 h post-induction vs induction); higher = less antimicrobial activity (less host growth inhibition); conditions: time post-induction: 4.5 h; library: site-saturation at positions 5, 18, 19, 20
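Also: peptides expressed intracellularly from a pBAD plasmid library in pooled LB shake-flask culture, induced with 0.3% L-arabinose, DNA abundance read by NGS, three biological replicates, DESeq2 with apeglm shrinkage.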

Row | Sequence | shrunken log2 fold change
1 | RRIRGRPPRLPRPRPRPINTPRP | -0.4
2 | RRIRTRPPRLPRPRPRPMIKPRP | -0.103
3 | RRIRPRPPRLPRPRPRPARIPRP | 0.14
4 | RRIRPRPPRLPRPRPRPNIAPRP | 0.225
5 | RRIRVRPPRLPRPRPRPQSHPRP | -0.613
6 | RRIRARPPRLPRPRPRPPCQPRP | 0.438
7 | RRIRCRPPRLPRPRPRPIQNPRP | -0.538
8 | RRIRCRPPRLPRPRPRPMDAPRP | -0.0146
9 | RRIRPRPPRLPRPRPRPWGAPRP | 0.738
10 | RRIRGRPPRLPRPRPRPKHQPRP | 0.441
11 | RRIRVRPPRLPRPRPRPLNQPRP | -0.0183
12 | RRIRWRPPRLPRPRPRPYIMPRP | -0.116
13 | RRIRMRPPRLPRPRPRPPEPPRP | 0.296
14 | RRIRDRPPRLPRPRPRPRICPRP | 0.00396
15 | RRIRNRPPRLPRPRPRPDTCPRP | -0.279
16 | RRIRPRPPRLPRPRPRPSWRPRP | -0.0524
17 | RRIRRRPPRLPRPRPRPKQCPRP | 0.0754
18 | RRIRIRPPRLPRPRPRPCHNPRP | -0.293
19 | RRIRQRPPRLPRPRPRPMDSPRP | -0.01
20 | RRIRTRPPRLPRPRPRPQNPPRP | -0.148
21 | RRIRIRPPRLPRPRPRPLKCPRP | 0.0563
22 | RRIRDRPPRLPRPRPRPWRMPRP | -0.397
23 | RRIRSRPPRLPRPRPRPMPTPRP | 0.358
24 | RRIRVRPPRLPRPRPRPSIQPRP | -0.321
25 | RRIRMRPPRLPRPRPRPNSNPRP | -0.177

Row | Sequence | shrunken log2 fold change
26 | RRIRQRPPRLPRPRPRPTLPPRP | 1.69
27 | RRIRTRPPRLPRPRPRPCPIPRP | -0.0712
28 | RRIRFRPPRLPRPRPRPWTGPRP | -0.00822
29 | RRIRQRPPRLPRPRPRPVSGPRP | 0.179
30 | RRIRNRPPRLPRPRPRPVHMPRP | -0.0948
31 | RRIRHRPPRLPRPRPRPEPGPRP | -0.044
32 | RRIRRRPPRLPRPRPRPKGHPRP | 0.127
33 | RRIRIRPPRLPRPRPRPQAGPRP | -0.16
34 | RRIRKRPPRLPRPRPRPPDFPRP | 0.12
35 | RRIRRRPPRLPRPRPRPDINPRP | -0.243
36 | RRIRMRPPRLPRPRPRPMIKPRP | -0.262
37 | RRIRFRPPRLPRPRPRPQIAPRP | 0.111
38 | RRIRHRPPRLPRPRPRPNYLPRP | -0.114
39 | RRIRRRPPRLPRPRPRPETEPRP | 0.783
40 | RRIRCRPPRLPRPRPRPWPIPRP | -0.369
41 | RRIRTRPPRLPRPRPRPLIHPRP | -0.552
42 | RRIRQRPPRLPRPRPRPPANPRP | 0.409
43 | RRIRNRPPRLPRPRPRPSNMPRP | -0.429
44 | RRIRERPPRLPRPRPRPDFYPRP | -0.491
45 | RRIRDRPPRLPRPRPRPPMKPRP | 0.131
46 | RRIRDRPPRLPRPRPRPQCSPRP | 0.0391
47 | RRIRMRPPRLPRPRPRPMEWPRP | 0.379
48 | RRIRIRPPRLPRPRPRPNIGPRP | -0.358
49 | RRIRKRPPRLPRPRPRPQYIPRP | 0.102
50 | RRIRERPPRLPRPRPRPYSMPRP | -1.48

Row | Sequence | shrunken log2 fold change
51 | RRIRTRPPRLPRPRPRPPIEPRP | -0.0275
52 | RRIRQRPPRLPRPRPRPCMHPRP | -0.0431
53 | RRIRMRPPRLPRPRPRPRYVPRP | -0.18
54 | RRIRHRPPRLPRPRPRPVYRPRP | -0.305
55 | RRIRSRPPRLPRPRPRPFIGPRP | -1.15
56 | RRIRRRPPRLPRPRPRPKWDPRP | 0.139
57 | RRIRQRPPRLPRPRPRPTLWPRP | 0.0794
58 | RRIRQRPPRLPRPRPRPHGNPRP | 0.0941
59 | RRIRPRPPRLPRPRPRPIDEPRP | -0.0401
60 | RRIRARPPRLPRPRPRPHYDPRP | -0.0354
61 | RRIRCRPPRLPRPRPRPTNRPRP | -0.356
62 | RRIRMRPPRLPRPRPRPPCQPRP | 0.505
63 | RRIRCRPPRLPRPRPRPAKFPRP | 0.154
64 | RRIRIRPPRLPRPRPRPEQQPRP | -0.132
65 | RRIRGRPPRLPRPRPRPAEEPRP | 1.15
66 | RRIRSRPPRLPRPRPRPDQMPRP | 0.049
67 | RRIRCRPPRLPRPRPRPYCSPRP | -0.502
68 | RRIRHRPPRLPRPRPRPSMSPRP | -0.0246
69 | RRIRDRPPRLPRPRPRPYIYPRP | -0.184
70 | RRIRLRPPRLPRPRPRPRRVPRP | 0.0457
71 | RRIRQRPPRLPRPRPRPYCVPRP | -0.00867
72 | RRIRMRPPRLPRPRPRPLYRPRP | -0.0998
73 | RRIRKRPPRLPRPRPRPCDEPRP | 0.121
74 | RRIRKRPPRLPRPRPRPVAEPRP | 0.973
75 | RRIRARPPRLPRPRPRPPYDPRP | 0.0295
